Values joined by “and” are separate entries in the source; they are usually repeats but may differ in a detail not shown here. Equal entries are not always repeated.
B1: LDL receptor (LDLR) on human glioblastoma multiforme cells (receptor)
chain: not shown
notes: whole, on cells; also called cell surface LDLR

Assays:
[1] = biological target: T1, native plasma LDL (low density lipoprotein; LDLR ligand apoB100 on its surface) (human, UniProt P04114 28-4563); assay: ^125I-LDL saturation binding to U-251 MG cells (average of 2 experiments)
T1 construct: Lipoprotein particle isolated from plasma; also called native LDL
T1 sequence (P04114 28-4563 limits assumed): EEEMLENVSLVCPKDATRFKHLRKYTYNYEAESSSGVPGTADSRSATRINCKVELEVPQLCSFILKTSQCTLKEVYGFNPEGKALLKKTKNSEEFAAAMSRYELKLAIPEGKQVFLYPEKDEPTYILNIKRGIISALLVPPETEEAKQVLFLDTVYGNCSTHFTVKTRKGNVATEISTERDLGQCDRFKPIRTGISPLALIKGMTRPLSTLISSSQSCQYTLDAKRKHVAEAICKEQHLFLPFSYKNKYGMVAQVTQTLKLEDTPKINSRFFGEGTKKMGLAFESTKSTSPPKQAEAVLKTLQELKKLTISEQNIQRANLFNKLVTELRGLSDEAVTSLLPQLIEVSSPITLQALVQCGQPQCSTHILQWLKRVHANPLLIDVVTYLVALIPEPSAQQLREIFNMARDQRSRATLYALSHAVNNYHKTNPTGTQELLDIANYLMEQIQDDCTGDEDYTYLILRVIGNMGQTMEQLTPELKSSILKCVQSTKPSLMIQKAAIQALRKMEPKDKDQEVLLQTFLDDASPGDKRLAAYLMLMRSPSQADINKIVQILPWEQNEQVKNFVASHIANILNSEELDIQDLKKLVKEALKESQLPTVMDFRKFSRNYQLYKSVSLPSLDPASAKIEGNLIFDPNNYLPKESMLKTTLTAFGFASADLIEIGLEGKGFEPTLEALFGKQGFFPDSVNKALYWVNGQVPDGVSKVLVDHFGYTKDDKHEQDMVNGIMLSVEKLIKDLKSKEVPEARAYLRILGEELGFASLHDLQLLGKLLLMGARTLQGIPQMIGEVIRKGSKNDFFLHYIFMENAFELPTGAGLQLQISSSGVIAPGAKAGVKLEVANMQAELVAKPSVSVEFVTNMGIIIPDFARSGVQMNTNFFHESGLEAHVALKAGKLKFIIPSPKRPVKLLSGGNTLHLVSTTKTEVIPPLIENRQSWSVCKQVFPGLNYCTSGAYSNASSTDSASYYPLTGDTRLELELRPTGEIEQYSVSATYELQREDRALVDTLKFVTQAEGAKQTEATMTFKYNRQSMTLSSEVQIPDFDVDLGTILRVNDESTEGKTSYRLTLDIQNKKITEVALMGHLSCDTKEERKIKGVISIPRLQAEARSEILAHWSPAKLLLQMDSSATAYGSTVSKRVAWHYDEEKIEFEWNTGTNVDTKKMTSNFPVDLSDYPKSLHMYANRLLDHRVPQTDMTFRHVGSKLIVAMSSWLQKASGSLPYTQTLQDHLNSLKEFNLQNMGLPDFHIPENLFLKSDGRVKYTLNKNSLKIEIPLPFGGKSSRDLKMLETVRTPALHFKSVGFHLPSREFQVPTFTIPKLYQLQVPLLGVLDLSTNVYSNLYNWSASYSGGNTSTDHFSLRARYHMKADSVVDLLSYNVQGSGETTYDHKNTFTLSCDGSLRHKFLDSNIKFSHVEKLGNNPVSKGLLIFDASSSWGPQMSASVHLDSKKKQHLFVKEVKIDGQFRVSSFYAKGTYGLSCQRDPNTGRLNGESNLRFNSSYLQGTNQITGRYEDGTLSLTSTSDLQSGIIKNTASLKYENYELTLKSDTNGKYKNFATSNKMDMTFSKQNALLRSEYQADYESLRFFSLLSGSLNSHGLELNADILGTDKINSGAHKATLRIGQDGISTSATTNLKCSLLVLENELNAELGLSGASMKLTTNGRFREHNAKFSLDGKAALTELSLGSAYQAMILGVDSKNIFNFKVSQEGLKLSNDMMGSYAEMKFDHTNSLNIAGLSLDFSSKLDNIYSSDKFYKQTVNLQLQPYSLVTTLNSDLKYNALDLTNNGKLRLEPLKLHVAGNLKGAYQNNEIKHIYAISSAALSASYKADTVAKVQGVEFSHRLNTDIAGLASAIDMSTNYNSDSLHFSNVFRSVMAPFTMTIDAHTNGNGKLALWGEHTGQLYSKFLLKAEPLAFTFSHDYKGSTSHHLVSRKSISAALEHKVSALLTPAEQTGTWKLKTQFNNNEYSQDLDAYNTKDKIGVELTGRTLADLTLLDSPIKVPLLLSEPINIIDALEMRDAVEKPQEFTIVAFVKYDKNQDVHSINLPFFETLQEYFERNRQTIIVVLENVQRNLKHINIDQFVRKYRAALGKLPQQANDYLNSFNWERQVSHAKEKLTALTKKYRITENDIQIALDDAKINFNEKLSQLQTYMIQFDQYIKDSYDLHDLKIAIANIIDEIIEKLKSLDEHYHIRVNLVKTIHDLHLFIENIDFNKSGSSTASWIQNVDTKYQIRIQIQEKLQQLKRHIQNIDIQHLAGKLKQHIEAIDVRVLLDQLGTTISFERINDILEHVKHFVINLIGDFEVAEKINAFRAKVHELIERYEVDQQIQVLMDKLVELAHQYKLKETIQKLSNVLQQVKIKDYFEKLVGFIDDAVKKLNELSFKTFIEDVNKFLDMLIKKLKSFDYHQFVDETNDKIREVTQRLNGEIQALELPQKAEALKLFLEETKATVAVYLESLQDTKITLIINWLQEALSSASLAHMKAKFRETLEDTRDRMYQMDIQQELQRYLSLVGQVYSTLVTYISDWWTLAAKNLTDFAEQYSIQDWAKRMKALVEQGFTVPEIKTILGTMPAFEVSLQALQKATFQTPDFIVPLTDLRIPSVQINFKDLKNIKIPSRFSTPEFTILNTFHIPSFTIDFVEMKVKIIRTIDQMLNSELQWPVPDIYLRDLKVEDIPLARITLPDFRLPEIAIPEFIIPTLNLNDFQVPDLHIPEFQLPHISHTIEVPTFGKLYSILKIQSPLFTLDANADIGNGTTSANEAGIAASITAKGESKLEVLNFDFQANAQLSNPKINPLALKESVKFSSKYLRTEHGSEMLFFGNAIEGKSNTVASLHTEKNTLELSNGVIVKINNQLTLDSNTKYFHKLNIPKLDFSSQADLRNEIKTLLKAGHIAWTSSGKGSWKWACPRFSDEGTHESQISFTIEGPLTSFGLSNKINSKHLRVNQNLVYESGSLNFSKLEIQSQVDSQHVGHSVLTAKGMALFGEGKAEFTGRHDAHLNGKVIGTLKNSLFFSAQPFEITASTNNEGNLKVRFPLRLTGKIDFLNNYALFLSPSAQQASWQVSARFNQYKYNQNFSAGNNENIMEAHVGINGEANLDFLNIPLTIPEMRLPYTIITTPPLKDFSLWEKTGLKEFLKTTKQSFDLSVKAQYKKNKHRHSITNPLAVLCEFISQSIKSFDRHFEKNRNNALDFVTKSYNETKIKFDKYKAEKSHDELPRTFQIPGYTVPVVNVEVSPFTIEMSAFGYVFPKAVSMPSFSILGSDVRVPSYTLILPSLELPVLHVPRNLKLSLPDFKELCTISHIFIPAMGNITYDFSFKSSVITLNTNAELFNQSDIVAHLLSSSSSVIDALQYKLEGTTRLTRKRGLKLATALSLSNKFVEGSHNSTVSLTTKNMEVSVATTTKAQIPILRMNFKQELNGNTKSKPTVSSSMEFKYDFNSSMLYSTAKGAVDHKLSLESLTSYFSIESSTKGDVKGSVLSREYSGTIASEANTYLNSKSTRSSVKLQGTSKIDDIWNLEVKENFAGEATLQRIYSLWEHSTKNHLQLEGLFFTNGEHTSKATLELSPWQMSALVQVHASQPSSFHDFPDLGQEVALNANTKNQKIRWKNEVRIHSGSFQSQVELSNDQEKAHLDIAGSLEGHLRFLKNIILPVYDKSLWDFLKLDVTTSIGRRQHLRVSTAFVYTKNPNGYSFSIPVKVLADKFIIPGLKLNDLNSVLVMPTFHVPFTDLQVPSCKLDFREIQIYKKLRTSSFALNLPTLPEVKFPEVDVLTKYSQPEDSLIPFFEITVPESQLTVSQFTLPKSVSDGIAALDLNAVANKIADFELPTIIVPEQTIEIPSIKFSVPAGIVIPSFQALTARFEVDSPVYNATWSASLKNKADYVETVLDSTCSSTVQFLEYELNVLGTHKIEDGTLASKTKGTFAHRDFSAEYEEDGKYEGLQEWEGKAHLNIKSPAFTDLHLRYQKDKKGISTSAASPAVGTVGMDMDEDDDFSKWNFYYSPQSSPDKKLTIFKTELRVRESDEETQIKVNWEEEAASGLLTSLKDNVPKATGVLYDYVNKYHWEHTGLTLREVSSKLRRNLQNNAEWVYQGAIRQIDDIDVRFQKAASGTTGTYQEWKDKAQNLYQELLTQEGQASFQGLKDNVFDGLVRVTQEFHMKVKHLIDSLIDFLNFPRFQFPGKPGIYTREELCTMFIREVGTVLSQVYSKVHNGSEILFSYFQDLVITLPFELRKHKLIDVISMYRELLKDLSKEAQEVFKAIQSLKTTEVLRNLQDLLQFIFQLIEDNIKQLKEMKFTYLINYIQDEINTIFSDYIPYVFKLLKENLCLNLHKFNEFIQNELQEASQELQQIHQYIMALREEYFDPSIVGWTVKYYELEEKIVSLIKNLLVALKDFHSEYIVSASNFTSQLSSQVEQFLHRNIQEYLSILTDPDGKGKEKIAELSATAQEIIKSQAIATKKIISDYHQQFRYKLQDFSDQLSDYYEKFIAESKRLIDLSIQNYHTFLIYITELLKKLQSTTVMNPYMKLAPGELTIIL

[2] = biological target: T1, native plasma LDL (low density …); assay: ^125I-LDL saturation binding to A-172 cells
[3] = biological target: T1, native plasma LDL (low density …); assay: ^125I-LDL saturation binding to SF-763 cells
[4] = biological target: T1, native plasma LDL (low density …); assay: ^125I-LDL saturation binding to SF-767 cells
[5] = biological target: T1, native plasma LDL (low density …); assay: ^125I-LDL saturation binding to SF-539 cells
[6] = biological target: T1, native plasma LDL (low density …); assay: ^125I-LDL saturation binding to U-343 MG cells
[7] = biological target: B1; assay: cell-based or functional assay

Row | Kd [1] | Kd [2] | Kd [3] | Kd [4] | Kd [5] | Kd [6] | Binder | IC50 of SF-763 cell killing, 6 hrs incubation with sLDL-PO, 72 hr total [7] | IC50 of SF-767 cell killing, 1 hr incubation with sLDL-PO, 72 hr total [7] | IC50 of SF-767 cell killing, 3 hr incubation with sLDL-PO, 72 hr total [7] | IC50 of SF-767 cell killing, 6 hr incubation with sLDL-PO, 72 hr total [7] | IC50 of SF-767 cell killing, 6 hrs incubation with sLDL-PO, 72 hr total [7] | IC50 of SF-767 cell killing, 12 hr incubation with sLDL-PO, 72 hr total [7] | IC50 of U-251 cell killing, 6 hrs incubation with sLDL-PO, 72 hr total [7]
1 | 38 µg/mL and 76 nM | 62 µg/mL and 124 nM | 60 µg/mL and 120 nM | 3.5 µg/mL and 6.98 nM | 50 µg/mL and 100 nM | 40 µg/mL and 80 nM | B1 | – | – | – | – | – | – | –
2 | – | – | – | – | – | – | Ac-DWLKAFYDKVAEKLKEAFRLTRKRGLKLA-NH2 (also: sLDL particle with paclitaxel oleate in lipid core, not covalently bound) [synthetic LDL containing paclitaxel oleate (sLDL-PO)] | 2 µM | 20 µM | 15 µM | 10 µM | 7 µM | 10 µM | 7 µM
